Source: article PMC4755656, “Interaction Analysis of a Two-Component System Using Nanodiscs” (PLoS ONE, 2016)
Each block holds one binder with its values, some of them ahead of it.

Legend:
Settings in all cases: both partners purified
[1] = target: T1, NT-647-labelled CpxA-Strep reconstituted in nanodiscs (CpxA-ND), as used for MST (E. coli, UniProt P0AE82 1-457, NT-647 dye (NHS NT-647 labeling kit; typically one primary amine per protein, position statistical)); experiment: MST; NT-647-labelled CpxA-Strep in nanodiscs (or labelled MSP1D1 in empty nanodiscs) constant at 150 nM; unlabelled CpxR (0.007-237.5 µM) or CpxP (0.01-367.5 µM) titrated; HEPES-buffered saline (20 mM HEPES pH 7.5, 150 mM NaCl), RT; no nucleotide
T1 construct: CpxA sits in a lipid bilayer ringed by two MSP1D1 molecules (1:1 molar ratio of MSP to CpxA); also called labeled CpxA-Strep in nanodiscs; CpxA-Strep nanodiscs; source: E. coli BL21(DE3) pLysS, from pI1CpxA, purified (Strep-Tactin Superflow); labelled, then reconstituted into nanodiscs; not shown: Strep, C-terminal, kept
T1 sequence (looked up): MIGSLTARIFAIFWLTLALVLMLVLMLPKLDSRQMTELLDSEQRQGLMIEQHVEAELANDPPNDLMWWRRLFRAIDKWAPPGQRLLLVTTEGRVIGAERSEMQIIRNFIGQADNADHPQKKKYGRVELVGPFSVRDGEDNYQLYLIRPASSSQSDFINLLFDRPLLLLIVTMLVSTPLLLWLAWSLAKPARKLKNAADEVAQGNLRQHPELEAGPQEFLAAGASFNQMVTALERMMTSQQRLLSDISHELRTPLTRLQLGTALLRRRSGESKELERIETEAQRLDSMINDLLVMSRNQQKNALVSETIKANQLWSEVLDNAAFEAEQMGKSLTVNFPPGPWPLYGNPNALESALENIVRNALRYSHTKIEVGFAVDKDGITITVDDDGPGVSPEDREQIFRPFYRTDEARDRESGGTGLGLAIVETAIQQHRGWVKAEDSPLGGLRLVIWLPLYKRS

[2] = target: T2, phosphorylated CpxA in nanodiscs (CpxA-P-ND) (E. coli, UniProt P0AE82 1-457, phosphorylated (autophosphorylation with ATP and MgCl2); residue number not given); experiment: SPR; as a1, but CpxA-P-ND injected in the presence of 2 mM Mg2+-ATP; constants from Interaction Map analysis (peak assigned to phosphorylated CpxA)
T2 construct: As m1, phosphorylated; also called phosphorylated CpxA-P-ND; source: E. coli BL21(DE3) pLysS, purified; reconstituted into nanodiscs; phosphorylated by adding ATP and MgCl2 (2 mM Mg2+-ATP present)
T2 sequence (looked up): T1 sequence (looked up)

[3] = target: T3, sensor histidine kinase CpxA reconstituted in nanodiscs (CpxA-ND), as used for SPR (E. coli, UniProt P0AE82 1-457); experiment: SPR; His6-CpxR (50 nM, about 300 RU) captured on an anti-His antibody chip; CpxA-ND or empty ND injected at 25-1000 nM; HBS (10 mM HEPES pH 7.4, 150 mM NaCl), 25 °C; constants from Interaction Map analysis of the sensorgrams
T3 construct: CpxA sits in a lipid bilayer ringed by two MSP1D1 molecules whose His-tag was removed with TEV protease for SPR; one or two dimers per nanodisc; also called CpxA in nanodiscs; source: E. coli BL21(DE3) pLysS, purified from solubilised membranes; reconstituted into nanodiscs (MSP1D1, E. coli total lipid extract, beta-cyclodextrin)
T3 sequence (looked up): T1 sequence (looked up)

[4] = target: T1, NT-647-labelled CpxA-Strep …; experiment: MST; as a3, with ADP and MgCl2 (phosphatase-competent state mimicked)
[5] = target: T1, NT-647-labelled CpxA-Strep …; experiment: MST; as a3, with the non-hydrolysable ATP analogue AMP-PNP and MgCl2
[6] = target: T1, NT-647-labelled CpxA-Strep …; experiment: MST; as a3, CpxA-Strep nanodiscs supplemented with 500 µM ATP and 5 mM MgCl2 before mixing with CpxR

- Kd [1]: > 100000 nM
B1: periplasmic accessory protein CpxP, His6-tagged (His6-CpxP) (natural protein, E. coli, UniProt P0AE85 22-166, looked up)
chain: AEVGSGDNWHPGEELTQRSTQSHMFDGISLTEHQRQQMRDLMQQARHEQPPVNVSELETMHRLVTAENFDENAVRAQAEKMANEQIARQVEMAKVRNQMYRLLTPEQQAVLNEKHQQRMEQLRDVTQWQKSSSLKLLSSSNSRSQ
notes: CpxP, periplasmic accessory protein of the Cpx two-component system, E. coli; The introduction says, citing other work, that CpxP acts as a homodimer

- Kd [2]: 24.8 nM
- koff [2]: 4.38e-05 s⁻¹
- kon [2]: 1760 M⁻¹ s⁻¹
- Kd [3]: 236 nM
- koff [3]: 0.000473 s⁻¹
- kon [3]: 2010 M⁻¹ s⁻¹
- Kd [4]: 1600 ± 300 nM
- Kd [5]: 110 ± 20 nM
- Kd [6]: 550 ± 60 nM
- Kd [1]: 3700 ± 500 nM
B2: response regulator CpxR, His6-tagged (His6-CpxR) (natural protein, E. coli, UniProt P0AE88 1-232, looked up)
chain: MNKILLVDDDRELTSLLKELLEMEGFNVIVAHDGEQALDLLDDSIDLLLLDVMMPKKNGIDTLKALRQTHQTPVIMLTARGSELDRVLGLELGADDYLPKPFNDRELVARIRAILRRSHWSEQQQNNDNGSPTLEVDALVLNPGRQEASFDGQTLELTGTEFTLLYLLAQHLGQVVSREHLSQEVLGKRLTPFDRAIDMHISNLRRKLPDRKDGHPWFKTLRGRGYLMVSAS
notes: CpxR, response regulator of the Cpx two-component system, E. coli; not shown: His6, N-terminal, kept
